Measurements from EP1068241B1.

How the values were obtained:
CD20 antigen = CD20 antigen (UniProt P11836); experiment: flow cytometry on WIL2-S cells
human C1q (human) [1] = biological target: human C1q (human) (UniProt P02745); experiment: cell-based or functional assay
human C1q (human) [2] = biological target: human C1q (human) (UniProt P02745); experiment: C1q binding ELISA
[3] = biological target: FcγRI α subunit-GST fusion (UniProt P12314); experiment: ELISA on coated FcγRI α subunit-GST fusion, IgG at 10 µg/ml
[4] = biological target: FcγRIIIa α subunit ECD-6His-GST fusion protein (UniProt P08637); experiment: ELISA, E27:chimeric IgE:VEGF immune complex on coated receptor
[5] = biological target: FcγRIIb α subunit ECD-6His-GST fusion protein (UniProt P31994); experiment: as above
[6] = biological target: FcγRIIa α subunit ECD-6His-GST fusion protein (UniProt P12318); experiment: as above
Chain of FcγRIIa α subunit ECD-6His-GST fusion protein (P12318 other isoform, or with tags, fused parts or gaps): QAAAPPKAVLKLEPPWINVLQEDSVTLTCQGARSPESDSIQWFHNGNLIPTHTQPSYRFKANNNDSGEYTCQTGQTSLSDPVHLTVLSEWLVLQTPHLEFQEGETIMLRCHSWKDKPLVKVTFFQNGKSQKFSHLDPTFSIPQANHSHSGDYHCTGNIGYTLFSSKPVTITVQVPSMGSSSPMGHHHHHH

Chain of human C1q (human) (P02745 23-245 limits assumed, chain 1 of 3): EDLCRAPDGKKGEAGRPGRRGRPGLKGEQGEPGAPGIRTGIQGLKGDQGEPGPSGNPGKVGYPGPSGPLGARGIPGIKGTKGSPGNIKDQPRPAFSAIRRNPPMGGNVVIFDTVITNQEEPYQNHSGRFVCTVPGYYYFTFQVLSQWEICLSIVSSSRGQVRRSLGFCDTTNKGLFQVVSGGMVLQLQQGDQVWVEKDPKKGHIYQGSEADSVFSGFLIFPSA
Chain of human C1q (human) (P02746 28-253 limits assumed, chain 2 of 3, further chain): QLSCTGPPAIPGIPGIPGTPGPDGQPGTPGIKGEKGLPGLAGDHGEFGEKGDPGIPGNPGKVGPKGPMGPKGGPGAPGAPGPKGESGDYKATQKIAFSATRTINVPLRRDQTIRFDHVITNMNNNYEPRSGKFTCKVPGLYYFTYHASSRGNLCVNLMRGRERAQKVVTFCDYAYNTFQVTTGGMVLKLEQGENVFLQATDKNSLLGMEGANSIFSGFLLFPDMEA
Chain of human C1q (human) (P02747 29-245 limits assumed, chain 3 of 3, further chain): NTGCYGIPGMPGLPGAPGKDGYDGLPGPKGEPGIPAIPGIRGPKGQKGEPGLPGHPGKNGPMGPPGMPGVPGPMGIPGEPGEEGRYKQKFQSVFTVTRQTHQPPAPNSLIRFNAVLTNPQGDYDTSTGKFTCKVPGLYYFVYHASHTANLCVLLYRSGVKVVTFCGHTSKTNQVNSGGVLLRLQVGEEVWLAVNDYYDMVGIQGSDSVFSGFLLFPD
Chain of CD20 antigen (P11836 whole entry): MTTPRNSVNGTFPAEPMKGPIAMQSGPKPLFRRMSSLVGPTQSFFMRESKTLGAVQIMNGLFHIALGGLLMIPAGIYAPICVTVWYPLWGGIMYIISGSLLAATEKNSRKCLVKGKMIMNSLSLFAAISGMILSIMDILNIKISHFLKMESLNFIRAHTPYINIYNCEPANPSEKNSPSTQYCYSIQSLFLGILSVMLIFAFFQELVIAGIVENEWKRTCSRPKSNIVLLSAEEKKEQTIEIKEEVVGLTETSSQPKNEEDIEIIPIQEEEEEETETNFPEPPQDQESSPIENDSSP
Chain of FcγRI α subunit-GST fusion (P12314 other isoform, or with tags, fused parts or gaps): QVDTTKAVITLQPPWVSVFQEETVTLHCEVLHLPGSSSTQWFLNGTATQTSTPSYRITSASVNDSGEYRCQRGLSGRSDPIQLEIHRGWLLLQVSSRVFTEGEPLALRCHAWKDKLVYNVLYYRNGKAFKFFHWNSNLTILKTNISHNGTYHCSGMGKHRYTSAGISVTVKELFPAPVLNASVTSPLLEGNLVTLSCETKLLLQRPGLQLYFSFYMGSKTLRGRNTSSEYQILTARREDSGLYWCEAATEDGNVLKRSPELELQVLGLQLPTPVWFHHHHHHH
Chain of FcγRIIb α subunit ECD-6His-GST fusion protein (P31994 other isoform, or with tags, fused parts or gaps): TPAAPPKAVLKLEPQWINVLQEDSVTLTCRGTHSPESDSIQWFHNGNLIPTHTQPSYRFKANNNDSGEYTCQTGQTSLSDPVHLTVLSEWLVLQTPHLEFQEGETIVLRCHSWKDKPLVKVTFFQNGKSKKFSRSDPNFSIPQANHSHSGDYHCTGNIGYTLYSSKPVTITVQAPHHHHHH
Chain of FcγRIIIa α subunit ECD-6His-GST fusion protein (P08637 other isoform, or with tags, fused parts or gaps): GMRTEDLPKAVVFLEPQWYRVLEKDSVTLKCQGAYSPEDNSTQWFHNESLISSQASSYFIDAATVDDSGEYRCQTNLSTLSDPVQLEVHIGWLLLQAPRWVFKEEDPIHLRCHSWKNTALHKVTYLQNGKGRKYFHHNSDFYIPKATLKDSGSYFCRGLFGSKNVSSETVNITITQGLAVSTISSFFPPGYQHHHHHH

| EC50 as percentage of the wild type (CD20 antigen) [%] | CDC (percentage of the wild type) (human C1q (human) [1]) [%] | decrease in binding against wild type C2B8 (human C1q (human) [2]) [%] | binding as percentage of the wild type [3] [%] | binding as percentage of the wild type [4] [%] | binding as percentage of the wild type [5] [%] | binding as percentage of the wild type [6] [%] | fold lower binding than wild type C2B8 (human C1q (human) [2]) [fold] | Substance |
| --- | --- | --- | --- | --- | --- | --- | --- | --- |
| 89 | 108 | 30 |  |  |  |  |  | C2B8 mutant E318A (antibody) |
|  |  |  | 93 | 104 | 106 | 113 |  | E27 anti-IgE antibody mutant E318A |
| 112 |  |  |  |  |  |  |  | C2B8 mutant P329A (antibody) |

Further lines, the substance ahead of its results:

| Substance | EC50 as percentage of the wild type (CD20 antigen) [%] | CDC (percentage of the wild type) (human C1q (human) [1]) [%] | decrease in binding against wild type C2B8 (human C1q (human) [2]) [%] | binding as percentage of the wild type [3] [%] | binding as percentage of the wild type [4] [%] | binding as percentage of the wild type [5] [%] | binding as percentage of the wild type [6] [%] | fold lower binding than wild type C2B8 (human C1q (human) [2]) [fold] |
| --- | --- | --- | --- | --- | --- | --- | --- | --- |
| E27 anti-IgE antibody mutant P329A |  |  |  | 104 | 85 |  |  |  |
| C2B8 mutant P331A (antibody) | 103 |  |  |  |  |  |  | 60 |
| C2B8 mutant K320A (antibody) | 102 | 108 |  |  |  |  |  |  |
| wild type E27 anti-IgE antibody |  |  |  | 100 | 100 | 100 | 100 |  |
| E27 anti-IgE antibody mutant K322A |  |  |  | 90 | 90 | 101 | 109 |  |
| E27 anti-IgE antibody mutant K320A |  |  |  | 102 | 72 | 83 |  |  |
| E27 anti-IgE antibody mutant P331A |  |  |  | 74 | 73 | 58 | 86 |  |
